Experimental data as given in US12187807B2, “Antibody molecules to C5AR1 and uses thereof” (Visterra, Inc., priority 2020, dated 2025).

T1: C5aR1 (C5aR1-U937 cells) (Homo sapiens, UniProt P21730, K279N)
T1 construct: expressed in transfected cells
T1 sequence (P21730 with tags, fused parts or gaps K279N limits assumed): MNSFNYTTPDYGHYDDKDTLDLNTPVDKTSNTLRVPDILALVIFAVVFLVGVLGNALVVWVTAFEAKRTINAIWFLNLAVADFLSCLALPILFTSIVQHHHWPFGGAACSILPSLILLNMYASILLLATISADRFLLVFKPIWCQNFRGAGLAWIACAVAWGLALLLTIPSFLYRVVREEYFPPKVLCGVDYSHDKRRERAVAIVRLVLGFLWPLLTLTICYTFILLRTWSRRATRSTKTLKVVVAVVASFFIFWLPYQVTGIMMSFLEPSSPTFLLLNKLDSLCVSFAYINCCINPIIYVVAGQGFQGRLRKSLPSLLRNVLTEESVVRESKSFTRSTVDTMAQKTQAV

T2: C5aR1 mutants (N-terminus, ECL1, ECL2, ECL3) (Homo sapiens, UniProt P21730, K279N/Y11F)
T2 sequence (P21730 with tags, fused parts or gaps Y11F/K279N): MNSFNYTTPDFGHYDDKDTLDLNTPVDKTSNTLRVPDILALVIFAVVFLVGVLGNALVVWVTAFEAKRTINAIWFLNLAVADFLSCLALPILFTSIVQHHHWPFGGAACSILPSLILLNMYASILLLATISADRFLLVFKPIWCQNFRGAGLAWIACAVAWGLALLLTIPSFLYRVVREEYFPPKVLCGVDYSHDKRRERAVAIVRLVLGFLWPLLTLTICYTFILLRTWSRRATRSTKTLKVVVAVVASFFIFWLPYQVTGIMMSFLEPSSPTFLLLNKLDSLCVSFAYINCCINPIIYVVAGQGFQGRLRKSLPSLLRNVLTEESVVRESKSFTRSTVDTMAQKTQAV

T3: C5aR1 mutants (N-terminus, ECL1, ECL2, ECL3) (Homo sapiens, UniProt P21730, E179A/K279N)
T3 sequence (P21730 with tags, fused parts or gaps E179A/K279N): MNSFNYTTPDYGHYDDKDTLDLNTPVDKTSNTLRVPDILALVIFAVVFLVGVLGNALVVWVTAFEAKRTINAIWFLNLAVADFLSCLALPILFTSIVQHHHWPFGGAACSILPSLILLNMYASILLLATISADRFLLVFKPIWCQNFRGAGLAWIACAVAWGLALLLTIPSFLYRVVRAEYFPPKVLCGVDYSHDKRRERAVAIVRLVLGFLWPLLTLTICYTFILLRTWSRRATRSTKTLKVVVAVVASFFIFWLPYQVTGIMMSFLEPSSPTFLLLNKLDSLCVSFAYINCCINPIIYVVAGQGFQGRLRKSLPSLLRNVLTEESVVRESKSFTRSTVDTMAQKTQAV

B1: clone 583: anti-C5aR1 Site I antibody; VH SEQ ID NO: 536, VL SEQ ID NO: 595 (antibody, V domains shown)
VH: EVQLVESGGGLVKPGGSLKLSCAASGFTFNAYAMSWVRQTPEKRLEWVASISTGGNTYCPDSVKDRFTVSRDNVRNILYLQMSSLRSEDTAMYYCTRGYQRFSGFAYWGQGTLVTVS
VL: DVVMTQTPLSPPVSLGYQASISCRSSQSLVHSNGNTYLNWYLQKPGQSPKLLIYKVSNRLSGVPDRFSGSGSGTDFTLKISRVETEDLGVYFCSQSTHVPYTFGGGTKLEIK
B2: clone 66: anti-C5aR1 Site I antibody; VH SEQ ID NO: 483, VL SEQ ID NO: 543 (antibody, V domains shown)
VH: QVQLQQSDAELVKPGASVKISCKASGYTFIDHAIHWVKQRPEQGLEWIGYISPGNGEIKYNEKFKAKATLTADKSSSAAYMQLNSLTSADSAVYFCKRALFYYTGKYQPMDYWGQGTTVTDSS
VL: DIVMTQSQKFMSTTAGDRVSITCKASQNVGSAVVWYQQKPGRSPKLLIYSSSIRYTGVPDRFTGSGSGTDFTLTINSVQSEDLADYFCQQYNSFPLTFGAGTKLEIK
B3: clone 329: anti-C5aR1 Site II antibody; VH SEQ ID NO: 492, VL SEQ ID NO: 552 (antibody, V domains shown)
VH: QVQLQQSGAELTKPGASVKLSCKASGYTFTNYWMHWVKQRPGQGLEWIGYLNPSSGYTKYNQKFKDKATLTADKSSSTAYMQLNSLTYEDSAVYYCTRSGGDNYGNPYYFDRWGQGTTVTVSS
VL: DVVMTQTPLSLTVSLGDQASISCRSSQSLVHSNGNTYLHWYLQKPGQSPKFLIYKVSNRFSGVPDRFSGSGSGTDFRLKISRVEAEDLGVYFCSQSTLVPLTFGAGTKLEIK

Assays:
C5aR1 (C5aR1-U937 cells) = molecular target: T1, C5aR1 (C5aR1-U937 cells); experiment: C5a induced chemotaxis (transwell), C5aR1-U937 cells; format: cell-based; settings: for inhibition of cell chemotaxis: C5aR1-U937 cells, 1, 10, or 100 nM antibody, C5a 10^−6 to 10^−9.5 M; for inhibition of chemotaxis as single agents: FIGS. 18A-18C, cells not given
Description: (§1) One of the primary mechanisms by which neutrophils migrate to the site of inflammation is by chemotaxis induced by a C5a/C5adesArg gradient is detected by C5aR1 signaling. Anti-C5aR1 antibodies were thus assessed in a chemotaxis assay for their ability to block C5a induced migration of neutrophils. The assay involved cell migration in a double chamber well separated by filters. The cells and inhibitors were applied into the upper chamber and the lower chamber was filled with the chemoattractant, causing the cells to migrate to the lower chamber. The inhibition activity was evaluated by counting the migrated cell numbers. Specifically, a titration of C5a was added to the bottom chamber a 96 transwell plate. Cells expressing human C5aR1 (C5aR1-U937 cells or human neutrophils) were incubated with or without antagonist and then seeded into the top chamber of the transwell plate. The cells were incubated for 2 hours. Cells that migrated to the bottom chamber were quantified using the CyQUANT cell proliferation kit following the manufacturer's protocol. The assay was performed using engineered cells stably expressing C5aR1 as well as using human neutrophils.
as §1, with “Anti-C5aR1” for “One of the primary mechanisms by which neutrophils migrate to the site of inflammation is by chemotaxis induced by a C5a/C5adesArg gradient is detected by C5aR1 signaling. Anti-C5aR1”, “were” for “were thus”
In a first experiment, C5aR1-U937 cells were seeded into the top chamber of a 96 Transwell plate in the presence of no antibody (antagonist), or of 1, 10, or 100 nM antibody (antagonist).

[1] = molecular target: T2, C5aR1 mutants (N-terminus, ECL1, ECL2, ECL3); experiment: Alanine scanning / mutagenesis epitope mapping of C5aR1; format: binding; settings: Y11F
Description: (§2) FIG. 5A is a diagram showing the results of alanine scanning mutations of site I interaction with mab 583. The N-terminal amino acid sequence of C5aR1 is listed across the top of the figure. Glycosylation sites are indicated by rectangle boxes. The only natural glycosylation site is at position N5. The other sites were introduced by mutagenesis. Mutations that abolished clone 583 binding are circled. The sulfated tyrosines at positions 11 and 14 are marked with a star sign. FIG. 5B is a diagram showing results of alanine scanning mutations of site I interaction with mab 66. Mutations that abolished clone 66 binding are circled. The sulfated tyrosines at positions 11 and 14 are marked with a star sign.
(§3) Ala substitutions of T8 & D10 moderately reduces its affinity while Y11 & D15 abolishes mAb binding. […] N-glycosylation of at N17 or D17P also abolishes mAb binding. N5 glycan is tolerated but a tandem glycosylation (N5 & N17) is not tolerated. mAb core epitopes are T8-G12 but nature of AA present in D15-D18 influence its binding. […] The core epitope appears to be located near T8-G12, with additional contributions from D15-D18.
(§4) Clone 66 was previously characterized as a site I binder and its binding is dependent on tyrosine sulfation at positions 11Y and/or 14Y. […] It should be noted that the only the only non-human species to retain clone 66 binding was baboon, which is the only NHP that retains the DYGHY motif.
(§5) However, it was unknown if additional contacts were made with ECL1 or ECL3. […] The data is highlighted in FIG. 5C-5E.
(§6) The core epitope of clone 11 is from E180-P183; the core epitope of clone 329 is from E180-P184; and the core epitope of clone 336 is from R178-P183. […] The data for clones 11, 329, and 336 is highlighted in FIG. 5F.

[2] = molecular target: T3, C5aR1 mutants (N-terminus, ECL1, ECL2, ECL3); experiment: as above; format: binding; settings: E179A
Description: as §2, §3, §4, §5, §6

Row | Molecule | inhibition of cell chemotaxis (C5aR1 (C5aR1-U937 cells)) | inhibition of chemotaxis as single agents (C5aR1 (C5aR1-U937 cells)) | binding to C5aR1 mutant [1] | binding to C5aR1 mutant [2]
1 | B1 | strongest effects | inhibited chemotaxis as single agents in a dose-dependent manner | does not abolish binding | –
2 | B2 | – | – | did not impact binding | –
3 | B3 | strongest effects | inhibited chemotaxis as single agents in a dose-dependent manner | – | did not reduce antibody affinity
